Ends that are not written are not given here.
B1: Arg-Gln-Gly-NH2 (peptide)
peptide: Arg-Gln-Gly-NH2
B2: Lys-Gln-Gly-NH2 (peptide)
peptide: Lys-Gln-Gly-NH2
B3: Ala-Leu-Gly-NH2 (peptide)
peptide: Ala-Leu-Gly-NH2
B4: Gly-Val-Gly-NH2 (peptide)
peptide: Gly-Val-Gly-NH2
B5: Val-Gly-Gly-NH2 (peptide)
peptide: Val-Gly-Gly-NH2
B6: Ala-Ser-Gly-NH2 (peptide)
peptide: Ala-Ser-Gly-NH2
B7: Ser-Leu-Gly-NH2 (peptide)
peptide: Ser-Leu-Gly-NH2
B8: Ser-Pro-Thr-NH2 (peptide)
peptide: Ser-Pro-Thr-NH2
B9: LKA-NH2 (peptide)
peptide: Leu-Lys-Ala-NH2
B10: ILK-NH2 (peptide)
peptide: Ile-Leu-Lys-NH2
B11: GPQ-NH2 (peptide)
peptide: Gly-Pro-Gln-NH2
B12: GHK-NH2 (peptide)
peptide: Gly-His-Lys-NH2
B13: ACQ-NH2 (peptide)
peptide: Ala-Cys-Gln-NH2
B14: ARV-NH2 (peptide)
peptide: Ala-Arg-Val-NH2
B15: KAR-NH2 (peptide)
peptide: Lys-Ala-Arg-NH2
B16: HKA-NH2 (peptide)
peptide: His-Lys-Ala-NH2
B17: GAT-NH2 (peptide)
peptide: Gly-Ala-Thr-NH2
B18: KAL-NH2 (peptide)
peptide: Lys-Ala-Leu-NH2

Tests used:
[1] = biological target: capsid protein of HIV-2 (HIV-2)
[2] = biological target: capsid protein of SIV (SIV)
[3] = biological target: HIV-1 major capsid protein (p24) (HIV-1) (UniProt P04591)
[4] = biological target: HIV-1 major capsid protein (p24) (HIV-1) (UniProt P04591); remark: listed apart in the source
[5] = biological target: HIV-1 major capsid protein (p24) (HIV-1) (UniProt P04591); remark: listed apart in the source
[6] = biological target: HIV-1 major capsid protein (p24) (HIV-1) (UniProt P04591); remark: listed apart in the source
[7] = biological target: HIV-1 major capsid protein (p24) (HIV-1) (UniProt P04591); remark: listed apart in the source
[8] = biological target: HIV-1 major capsid protein (p24) (HIV-1) (UniProt P04591); assay: equilibrium dialysis of 10 µM recombinant protein against 27.5 µM 14C-GPG-NH2, scintillation counting; ratio to the dialysis buffer
[9] = biological target: T1, HIV-1 major capsid protein (p24) (HIV-1, UniProt P04591); assay: cell-based or functional assay
[10] = biological target: T1, HIV-1 major capsid protein (p24); assay: cell-based or functional assay; remark: listed apart in the source

Row | Molecule | p24 (pg/ml) in the supernatant of HIV-1 infected HUT78 cells, day 7, 100 µM peptide, reduction (%) [9] [%] | Day 10 RT, HIV-1 (OD of reverse transcriptase activity in the supernatant of infected H9 cells); HIV-1 syncytia [10] [OD] | other results
1 | Cys-Gln-Gly-NH2 (peptide) |  |  | Day 10 RT, HIV-2 (OD of reverse transcriptase activity in the supernatant of infected H9 cells) [1]: 0.296 OD; Day 10 RT, SIV (OD of reverse transcriptase activity in the supernatant of infected H9 cells) [2]: 0.11 OD
2 | Gly-Lys-Gly-NH2 (peptide) |  |  | Day 10 RT, HIV-2 (OD of reverse transcriptase activity in the supernatant of infected H9 cells) [1]: 0.147 OD; Day 10 RT, SIV (OD of reverse transcriptase activity in the supernatant of infected H9 cells) [2]: 0.099 OD
3 | Gly-Pro-Gly-NH2 (peptide) |  |  | Day 10 RT, HIV-1 (OD of reverse transcriptase activity in the supernatant of infected H9 cells); HIV-1 syncytia [3]: 0.074 OD; Day 10 RT, HIV-2 (OD of reverse transcriptase activity in the supernatant of infected H9 cells) [1]: 0.145 OD; Day 10 RT, SIV (OD of reverse transcriptase activity in the supernatant of infected H9 cells) [2]: 0.103 OD; p24 antigen in the supernatant of HIV-1 infected H9 cells, day 7, reduction (%) [4]: 100%; p24 (pg/ml) in the supernatant of HIV-1 infected HUT78 cells, day 7, reduction (%) [5]: 97%; HIV-1 p24 (pg/ml) in the supernatant of PBMC infected with AZT- or Ritonavir-resistant HIV-1 isolates, 14 days post infection, 100 µM peptide [6]: < 500 pg/mL; p24 pg/ml in the supernatant of MT-2 cells infected with HIV-1 Bru wild type or the V3 loop GPG-deleted mutants mp8 and mp10, reduction % [7]: 93%; times buffer [8]: 7.55 times buffer
4 | B1 | 99 |  | 
5 | B2 | 99 |  | 
6 | B3 | 100 |  | 
7 | B4 | 25 |  | 
8 | B5 | 50 |  | 
9 | B6 | 25 |  | 
10 | B7 | 99 |  | 
11 | B8 | 25 |  | 
12 | B9 |  | 2.99 | 
13 | B10 |  | 2.95 | 
14 | B11 |  | 2.85 | 
15 | B12 |  | 3.01 | 
16 | B13 |  | 2.83 | 
17 | B14 |  | 2.83 | 
18 | B15 |  | 2.93 | 
19 | B16 |  | 2.79 | 
20 | B17 |  | 2.8 | 
21 | B18 |  | 2.79 | 

From US6258932, “Peptides that block viral infectivity and methods of use thereof” (Tripep AB, dated 2001)
